In US20130096058A1:

Target: Murine CD40L on the Th2 cell line D10.G4.1 (mouse) (UniProt P27548)
Experiment: cell-based or functional assay

Chain of Murine CD40L on the Th2 cell line D10.G4.1 (mouse) (P27548 whole entry): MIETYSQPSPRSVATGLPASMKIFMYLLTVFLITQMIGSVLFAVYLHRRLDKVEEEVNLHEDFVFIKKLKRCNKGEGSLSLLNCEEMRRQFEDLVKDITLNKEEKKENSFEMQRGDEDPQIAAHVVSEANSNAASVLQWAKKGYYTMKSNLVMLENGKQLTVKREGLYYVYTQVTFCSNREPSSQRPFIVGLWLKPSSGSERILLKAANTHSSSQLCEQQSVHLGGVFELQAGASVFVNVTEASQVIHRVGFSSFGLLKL

With MR1 antibody the IC50 of inhibition of MuCD40L-induced CD86 expression on B cells was 100 µM.
